Measured values taken from the supplement of paper PMC9170038.

System: MS2 coat protein
Assay: apparent KD of MS2 coat protein; designed switch direction (-1 OFF switch, 1 ON switch): -1; higher = weaker reporter binding
Method in brief: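 Designed RNA switches were transcribed on Illumina chips by stalled E. coli RNA polymerase and titrated with SNAP-549-labelled MS2 coat protein from 0.7 or 1.5 nM, doubling to 3 µM. Step length ran from 0.8–1.5 h at the lowest concentration to 10–20 min at the highest. The apparent KD is the median over clusters for each design, from curve-fitted normalised cluster fluorescence.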

[1] = Eterna round: R95, input ligand: FMN 200 uM
[2] = Eterna round: R95, input ligand: microRNA oligo, concentration not stated
[3] = Eterna round: R95, input ligand: none
[4] = input ligand: microRNA oligo, concentration not stated

For “CAUGGAUGUGAGCCGCAUUACAUGAGGAUCACCCAUGUCAACAAGCUUUUUGCUUGUCUUACGCGGCGGCACCAGAA [Getelexe] (puzzle: Sensor v3, turn-off variant 1)”, the “apparent KD of MS2 coat protein” value [1] was 14.3 nM, the “apparent KD of MS2 coat protein” value [2] was 8.03 nM and the “apparent KD of MS2 coat protein” value [3] was 10.8 nM.
For “CAUGUGUUAGGAUAUGCACAGAUCUCCUAAUGGAGAUCUGUGCAGAAGGGACAUGAGGAUCACCCAUGUUGAUG [Mod of Brourd 14 - Jieux - Exclusion 4] (Eterna round: R97, puzzle: Exclusion 4)”, the “apparent KD of MS2 coat protein” value (input ligand: FMN 200 uM) was 78.6 nM and the “apparent KD of MS2 coat protein” value (input ligand: none) was 48.6 nM.
In the case of “CAUGUUUGUCGUUGAUCCAACAUGAGGAUCACCCAUGUCUCUUUAGCUUUUUGCUCGUCUUAUCCUCCUUUGUUCAC [JR_STOV1_v2_Sub0101] (Eterna round: R97, puzzle: Sensor, turn-off variant 1)”, the “apparent KD of MS2 coat protein” value (input ligand: FMN 200 uM) is reported as 65.5 nM and the “apparent KD of MS2 coat protein” value (input ligand: none) is reported as 401 nM.
For “CAUUACUGCAGGCUUUGGGACAUGAGGAUCACCCAUGUUCGUCUUAUUGAUCUAGGUACGCUGACGUACCUAGAUCU [JL-sv1-2.26 Brourd mod] (puzzle: Sensor v3, turn-off variant 1)”, the “apparent KD of MS2 coat protein” value [1] was 17.6 nM, the “apparent KD of MS2 coat protein” value [2] was 20.8 nM and the “apparent KD of MS2 coat protein” value [3] was 15.1 nM.
“CAUUAUUAUCGAGGAUAUCGUAUUGAGAUACUAUGAGAAGGCGGGAUAAACAUGAGGAUCACCCAUGUGAGCCGGAUGCUUGUG [Ex NG1 #36] (Eterna round: R96, puzzle: Exclusion NG 1)” was tested, and the “apparent KD of MS2 coat protein” value [4] was 13.5 nM.
In the case of “CAUUGUGUUGAGGAUAUGCGCCGGCUCGCUGGCGCAGAAGGCGGCACAUGAGGAUCACCCAUGUCAGUUCGCGA [salish99_ex6_r004_416] (Eterna round: R97, puzzle: Exclusion 6)”, the “apparent KD of MS2 coat protein” value (input ligand: FMN 200 uM) is reported as 452 nM and the “apparent KD of MS2 coat protein” value (input ligand: none) is reported as 38 nM.
With “CAUUGUUAUCGAGGAUAUCGUAUUGAGAUACUACGAGAAGGCGGACUAAACAUGAGGAUCACCCAUGUGAGACGGAUGCUUGGG [Ex NG1 #33] (Eterna round: R96, puzzle: Exclusion NG 1)” the “apparent KD of MS2 coat protein” value (input ligand: FMN 200 uM) was 59 nM, the “apparent KD of MS2 coat protein” value [4] was 21 nM and the “apparent KD of MS2 coat protein” value (input ligand: none) was 34.3 nM.
With “CAUUUCUGUCGUUGAUCCAACAUGAGGAUCACCCAUGUCUCUUUAGCUUUUUGCUCGUCUUAUCCUCCUUUGUUCAC [JR_STOV1_Sub099] (Eterna round: R97, puzzle: Sensor, turn-off variant 1)” the “apparent KD of MS2 coat protein” value (input ligand: FMN 200 uM) was 499 nM and the “apparent KD of MS2 coat protein” value (input ligand: none) was 835 nM.
In the case of “CAUUUGUGAGGAUAUCAGGUGUGCUAGCGUACUGGUACAUCUGAGAAGGCACAUGAGGAUCACCCAUGUUCCUC [Mat - Exclusion 4 - Mod of JL - D35] (puzzle: Exclusion 4)”, the “apparent KD of MS2 coat protein” value [2] is reported as 44.1 nM.
With “CAUUUGUGAGGAUAUCAGGUGUGCUAGCGUACUGGUACAUCUGAGAAGGCACAUGAGGAUCACCCAUGUUUCUU [Mat - Exclusion 4 - Mod of JL - D37] (puzzle: Exclusion 4)” the “apparent KD of MS2 coat protein” value [2] was 15.9 nM.
In the case of “CCAAUGUAAGGAUAUCGUGCAAGUUUCAAAAGAGGCUUGUGCGAGAAGGUACAUGAGGAUCACCCAUGUAGGUU [Omei Ex4 B2] (Eterna round: R97, puzzle: Exclusion 4)”, the “apparent KD of MS2 coat protein” value (input ligand: FMN 200 uM) is reported as 340 nM and the “apparent KD of MS2 coat protein” value (input ligand: none) is reported as 78.4 nM.
“CCACCUCACGUCAGGAUAUCCAUCUCGAGUGAGGAGGAGAAGGGACAUGAGGAUCACCCAUGUAUAGAAAGAAA [Veaonce] (Eterna round: R97, puzzle: Brourd's mod of Exclusion 4)” was tested, and the “apparent KD of MS2 coat protein” value (input ligand: FMN 200 uM) was 35.1 nM and the “apparent KD of MS2 coat protein” value (input ligand: none) was 22.1 nM.
For “CCACGACAUGAGGAUCACCCAUGUGAGGAUAUGGCCUGAAAAGCGUGAGCAGAAUCAAUCAGAAGGCGCGUGGG [salish99_ex1_r4_060] (Eterna round: R97, puzzle: Exclusion 1)”, the “apparent KD of MS2 coat protein” value (input ligand: FMN 200 uM) was 73.2 nM and the “apparent KD of MS2 coat protein” value (input ligand: none) was 45.7 nM.
For “CCACUGUCAGGAUAUCGUGCAUAACGUUAACAAUUUAUGUGCGAGAAGGGACAUGAGGAUCACCCAUGUAAACG [Omei Ex4 A28PK4] (Eterna round: R97, puzzle: Exclusion 4)”, the “apparent KD of MS2 coat protein” value (input ligand: FMN 200 uM) was 233 nM and the “apparent KD of MS2 coat protein” value (input ligand: none) was 166 nM.
With “CCAGUGUGAGGAUAUACAUGGAUAGUUUUAUAUAGUAUGUUACAUGAGGAUCACCCAUGUAGAAGGUAUAUCGG [15.1, 13.8 kcal, A 31%] (Eterna round: R97, puzzle: Exclusion 2)” the “apparent KD of MS2 coat protein” value (input ligand: FMN 200 uM) was 22.5 nM and the “apparent KD of MS2 coat protein” value (input ligand: none) was 28.7 nM.
For “CCAUAUAACUGAGGAUAUGAUCACCACUAACAUUCAGAAGGCAGACAUGAGGAUCACCCAUGUGAUUUCUCAAUAUUAUACAUC [Prohibition 76 - Jieux - Exclusion NG 1] (Eterna round: R96, puzzle: Exclusion NG 1)”, the “apparent KD of MS2 coat protein” value [4] was 375 nM.
With “CCAUCACAUGAGGAUCACCCAUGUUAGGAUAUCGUGCUGAUACCAUGUAUUGAAGUAGCGAGAAGGAGCGUUGG [Eternabot (L1) Solution 53] (Eterna round: R97, puzzle: Exclusion 1)” the “apparent KD of MS2 coat protein” value (input ligand: FMN 200 uM) was 83.6 nM and the “apparent KD of MS2 coat protein” value (input ligand: none) was 48 nM.
For “CCAUCGAGUGUGAGGAUAUGCUGUUCCUUGGAGCAGCAGAAGGCACAUGAGGAUCACCCAUGUGGAUACGGUGG [Mat - Exclusion 4 - JL Mod - D80] (puzzle: Brourd's mod of Exclusion 4)”, the “apparent KD of MS2 coat protein” value [2] was 33.4 nM.
In the case of “CCAUCGUGUGUGAGGAUAUGCUGGUCCUUGGAUCAGCAGAAGGCACAUGAGGAUCACCCAUGUGAAUACGAUGG [Mat - Exclusion 4 - JL Mod - D87] (puzzle: Brourd's mod of Exclusion 4)”, the “apparent KD of MS2 coat protein” value [2] is reported as 14.9 nM.
With “CCAUGUAGAGGAUAUCUUAAGCUAGACAUGAGGAUCACCCAUGUGACUAUUCCUAUGAGCGGAGAAGGCUGAACCA [Eternabot (L2) Solution 64] (Eterna round: R97, puzzle: Exclusion 5)” the “apparent KD of MS2 coat protein” value (input ligand: FMN 200 uM) was 29.7 nM and the “apparent KD of MS2 coat protein” value (input ligand: none) was 29.6 nM.
With “CCCACAAGCUUUUUGCUCGACAUGAGGAUCACCCAUGUAAAAUGGGUUAUAUAUAUAUGAAACAUAUAUAUAUACCU [-21.6, -47.5 kcal, A 35%] (Eterna round: R97, puzzle: Sensor, turn-off variant 1)” the “apparent KD of MS2 coat protein” value (input ligand: FMN 200 uM) was 43.9 nM and the “apparent KD of MS2 coat protein” value (input ligand: none) was 47.6 nM.
With “CCCAGAUAGGAAGGAUAUUGUACAUGAGGAUCACCCAUGUAAUAAAUGAGGAUCACGGAUGUAGACAAGAAGGUCCGGAUAAGC [Ostracism 6 - Jieux - Exclusion NG 2] (Eterna round: R96, puzzle: Exclusion NG 2)” the “apparent KD of MS2 coat protein” value (input ligand: FMN 200 uM) was 57.5 nM, the “apparent KD of MS2 coat protein” value [4] was 29.3 nM and the “apparent KD of MS2 coat protein” value (input ligand: none) was 39.5 nM.
“CCCAGGUCAUCUCCCGGGAACAACAUGAGGAUCACCCAUGUCUAGGAUAUCCACCAGUCAAUAAAGGAGAAGGAGACGGUGGUU [Edatarte] (Eterna round: R96, puzzle: Exclusion NG 3)” was tested, and the “apparent KD of MS2 coat protein” value [4] was 20.2 nM.
With “CCCAGUUACGGAGGAUAUUGUACAUGAGGAUCACCCAUGUAAUAAAUGAGGAUUUCGGGUGUCUACAAGAAGGCCGGGAUAGGC [Ostracism 18 - Jieux - Exclusion NG 2] (Eterna round: R96, puzzle: Exclusion NG 2)” the “apparent KD of MS2 coat protein” value (input ligand: FMN 200 uM) was 262 nM, the “apparent KD of MS2 coat protein” value [4] was 85.3 nM and the “apparent KD of MS2 coat protein” value (input ligand: none) was 66 nM.
In the case of “CCCAGUUAGGAAGGAUAUUGUACAUGAGGAUCACCCAUGUAAUAAAUGAGGAUCACGGAUGUAGACAAGAAGGUCCGGAUAGGC [Ostracism 8 - Jieux - Exclusion NG 2] (Eterna round: R96, puzzle: Exclusion NG 2)”, the “apparent KD of MS2 coat protein” value (input ligand: FMN 200 uM) is reported as 104 nM, the “apparent KD of MS2 coat protein” value [4] is reported as 41.5 nM and the “apparent KD of MS2 coat protein” value (input ligand: none) is reported as 55.5 nM.
In the case of “CCCAUGUCAGGAUAUUAAUUGAGCAGGAAGCCCUGUCCACUUGAGAAGGGACAUGAGGAUCACCCAUGUAAAAC [Radiaena] (Eterna round: R97, puzzle: Exclusion 4)”, the “apparent KD of MS2 coat protein” value (input ligand: FMN 200 uM) is reported as 138 nM and the “apparent KD of MS2 coat protein” value (input ligand: none) is reported as 417 nM.
With “CCCGCACGAGUUAGGAUAUCAUUUGUCGAGAUAGGUGAGAAGGAACUUGAGGAUCACCCAAGUGUCCCGGGAAA [Maquso] (Eterna round: R97, puzzle: Brourd's mod of Exclusion 4)” the “apparent KD of MS2 coat protein” value (input ligand: FMN 200 uM) was 37.5 nM and the “apparent KD of MS2 coat protein” value (input ligand: none) was 20.1 nM.
For “CCCGGGUUAGGAUAUUCCUCGUGCAGCUGACAGCCACGGGAGAAGAAGGGACAUGAGGAUCACCCAUGUGAAUA [Eternabot (L2) Solution 47] (Eterna round: R97, puzzle: Exclusion 4)”, the “apparent KD of MS2 coat protein” value (input ligand: FMN 200 uM) was 42 nM and the “apparent KD of MS2 coat protein” value (input ligand: none) was 32.9 nM.
With “CCCUCACAUGAGGAUCACCCAUGUCAGGAUAUCCAAGGCGAUCACCAAAAUAAAGCAAGGAGAAGGGACUUGGC [Enona] (Eterna round: R97, puzzle: Exclusion 1)” the “apparent KD of MS2 coat protein” value (input ligand: FMN 200 uM) was 71.5 nM and the “apparent KD of MS2 coat protein” value (input ligand: none) was 41.4 nM.
“CCCUCACAUGAGGAUCACCCAUGUCAGGAUAUCUAGUCAGAUAGUGUAGCACUAAUGAAGAGAAGGGACGUAUA [Lezagees] (puzzle: Exclusion 1)” was tested, and the “apparent KD of MS2 coat protein” value [2] was 16.9 nM.
In the case of “CCCUCACAUGAGGAUCACCCAUGUCAGGAUAUUCAAAGCGCAAAUGCGCCAAAUGCAGGAAGAAGGGACGUGCC [Bisoar] (Eterna round: R96, puzzle: Exclusion 1)”, the “apparent KD of MS2 coat protein” value (input ligand: FMN 200 uM) is reported as 18.6 nM, the “apparent KD of MS2 coat protein” value [4] is reported as 10.3 nM and the “apparent KD of MS2 coat protein” value (input ligand: none) is reported as 15 nM.
With “CCCUCACAUGAGGAUCACCCAUGUCAGGAUAUUCAAAGCGCAAAUGCGCCAAAUGCAGGAAGAAGGGACGUGCC [Bisoar] (puzzle: Exclusion 1)” the “apparent KD of MS2 coat protein” value [2] was 13.3 nM.
For “CCCUCACAUGAGGAUCACCCAUGUCAGGAUAUUCGGCGGUCAAUUGACCGCCUUAAAGGAAGAAGGGACGUAAA [Masore] (puzzle: Exclusion 1)”, the “apparent KD of MS2 coat protein” value [2] was 11.8 nM.
For “CCCUCACUUGAGGAUCACCCAAGUCAGGAUAUCUCCCACCCGGCAACAACCGGGUGCCAGAGAAGGGACUCAAA [Xemaques] (Eterna round: R97, puzzle: Exclusion 1)”, the “apparent KD of MS2 coat protein” value (input ligand: FMN 200 uM) was 17.9 nM and the “apparent KD of MS2 coat protein” value (input ligand: none) was 17 nM.
In the case of “CCCUCAGUCUAGGAUAUAACAAUCAGAUAUCAGUUAGAAGGAGACACAUGAGGAUCACCCAUGUGGGUCAAUAA [Bearener] (puzzle: Exclusion 6)”, the “apparent KD of MS2 coat protein” value [1] is reported as 50.7 nM, the “apparent KD of MS2 coat protein” value [2] is reported as 20.2 nM and the “apparent KD of MS2 coat protein” value [3] is reported as 21.3 nM.
